Measurements from US10925971B2, “Methods of treating PRLR positive breast cancer” (Regeneron Pharmaceuticals, Inc., priority 2016, dated 2021).

Molecular target: T1, hPRLR-mmH (SEQ ID NO:406) (Homo sapiens, UniProt P16471)
T1 construct: this experiment was conducted with a truncated form of PRLR (i.e., hPRLR-mmH)
Assay: Epitope mapping by hydrogen/deuterium exchange with MALDI-TOF MS
Format: binding
Description: Experiments were conducted to determine the amino acid residues of PRLR with which H1H6958N2 interacts. For this purpose hydrogen/deuterium (H/D) exchange epitope mapping was carried out. A general description of the H/D exchange method is set forth in e.g., Ehring (1999) Analytical Biochemistry 267(2):252-259; and Engen and Smith (2001) Anal. Chem. 73:256A-265A.
To map the binding epitope(s) of antibody H1H6958N2 on hPRLR via H/D exchange, a construct comprising a recombinant extracellular domain of hPRLR with a C-terminal myc-myc-hexahistidine tag (hPRLR-mmH; SEQ ID NO: SEQ ID NO:406) was buffer exchanged to PBS with a final concentration of 8 mg/mL, and antibody H1H6958N2 was covalently attached to N-hydroxysuccinimide (NHS) agarose beads (GE Lifescience)
In the ‘on-solution/off-beads’ (on-exchange in solution followed by off-exchange on beads) experiment, the hPRLR was deuterated for 5 min or 10 min in PBS buffer prepared with D2O, and then bound to H1H6958N2 beads through a 2 min incubation. The hPRLR-bound beads were washed with PBS aqueous buffer (prepared with H2O) and incubated PBS buffer for half of the on-exchange time. After the off-exchange, the bound hPRLR was eluted from beads with an ice-cold low pH TFA solution. The eluted hPRLR was then digested with immobilized pepsin (Thermo Scientific) for 5 min. The resulting peptides were desalted using ZipTip® chromatographic pipette tips and immediately analyzed by UltrafleXtreme matrix assisted laser desorption ionization time of flight (MALDI-TOF)-TOF mass spectrometry (MS).
In the ‘on-beads/off-beads’ (on-exchange on beads followed by off-exchange on beads) experiment, hPRLR was first bound to H1H6958N2 beads and then incubated for 5 min or 10 min in D2O for on-exchange. The following steps (off-exchange, pepsin digestion, and MS analysis) were carried out as described for the ‘on-solution/off-beads’ procedure. The centroid values or average mass-to-charge ratios (m/z) of all the detected peptides were calculated and compared between these two sets of experiments.
The results are summarized in Table 29 which provides a comparison of the centroid m/z values for all the detected peptides identified by liquid chromatography and MS following the H/D exchange and peptic digest procedure described above. For purposes of the present Example, a positive difference (A) of at least 0.20 m/z in both experiments indicates amino acids protected by antibody binding. Segments meeting this criterion are indicated by bold text and an asterisk (*) in Table 29. [Note that, although this experiment was conducted with a truncated form of PRLR (i.e., hPRLR-mmH; SEQ ID NO: 406), residue numbering in the far left column of Table 29 has been adjusted to correspond to the amino acid sequence of the full-length PRLR protein represented by SEQ ID NO: 404.]

[1] = hPRLR peptide residues 168-180 of SEQ ID NO: 404, Experiment II 10 min on-/5 min off-exchange
[2] = hPRLR peptide residues 169-180 of SEQ ID NO: 404, Experiment I 5 min on-/2.5 min off-exchange
[3] = hPRLR peptide residues 169-180 of SEQ ID NO: 404, Experiment II 10 min on-/5 min off-exchange
[4] = hPRLR peptide residues 170-179 of SEQ ID NO: 404, Experiment I 5 min on-/2.5 min off-exchange
[5] = hPRLR peptide residues 170-179 of SEQ ID NO: 404, Experiment II 10 min on-/5 min off-exchange
[6] = hPRLR peptide residues 170-180 of SEQ ID NO: 404, Experiment I 5 min on-/2.5 min off-exchange
[7] = hPRLR peptide residues 170-180 of SEQ ID NO: 404, Experiment II 10 min on-/5 min off-exchange
[8] = hPRLR peptide residues 191-205 of SEQ ID NO: 404, Experiment I 5 min on-/2.5 min off-exchange
[9] = hPRLR peptide residues 191-205 of SEQ ID NO: 404, Experiment II 10 min on-/5 min off-exchange
[10] = hPRLR peptide residues 192-202 of SEQ ID NO: 404, Experiment I 5 min on-/2.5 min off-exchange
[11] = hPRLR peptide residues 192-202 of SEQ ID NO: 404, Experiment II 10 min on-/5 min off-exchange
[12] = hPRLR peptide residues 192-205 of SEQ ID NO: 404, Experiment I 5 min on-/2.5 min off-exchange
[13] = hPRLR peptide residues 192-205 of SEQ ID NO: 404, Experiment II 10 min on-/5 min off-exchange
[14] = hPRLR peptide residues 206-215 of SEQ ID NO: 404, Experiment I 5 min on-/2.5 min off-exchange
[15] = hPRLR peptide residues 206-215 of SEQ ID NO: 404, Experiment II 10 min on-/5 min off-exchange
[16] = hPRLR peptide residues 206-217 of SEQ ID NO: 404, Experiment I 5 min on-/2.5 min off-exchange
[17] = hPRLR peptide residues 206-217 of SEQ ID NO: 404, Experiment II 10 min on-/5 min off-exchange
[18] = hPRLR peptide residues 206-222 of SEQ ID NO: 404, Experiment I 5 min on-/2.5 min off-exchange
[19] = hPRLR peptide residues 206-222 of SEQ ID NO: 404, Experiment II 10 min on-/5 min off-exchange
[20] = hPRLR peptide residues 236-249 of SEQ ID NO: 404, Experiment I 5 min on-/2.5 min off-exchange
[21] = hPRLR peptide residues 236-249 of SEQ ID NO: 404, Experiment II 10 min on-/5 min off-exchange
[22] = hPRLR peptide residues 238-261 of SEQ ID NO: 404, Experiment I 5 min on-/2.5 min off-exchange
[23] = hPRLR peptide residues 238-261 of SEQ ID NO: 404, Experiment II 10 min on-/5 min off-exchange
[24] = hPRLR peptide residues 241-261 of SEQ ID NO: 404, Experiment I 5 min on-/2.5 min off-exchange
[25] = hPRLR peptide residues 241-261 of SEQ ID NO: 404, Experiment II 10 min on-/5 min off-exchange
[26] = hPRLR peptide residues 250-261 of SEQ ID NO: 404, Experiment I 5 min on-/2.5 min off-exchange
[27] = hPRLR peptide residues 250-261 of SEQ ID NO: 404, Experiment II 10 min on-/5 min off-exchange

T1 sequence (P16471 with tags, fused parts or gaps): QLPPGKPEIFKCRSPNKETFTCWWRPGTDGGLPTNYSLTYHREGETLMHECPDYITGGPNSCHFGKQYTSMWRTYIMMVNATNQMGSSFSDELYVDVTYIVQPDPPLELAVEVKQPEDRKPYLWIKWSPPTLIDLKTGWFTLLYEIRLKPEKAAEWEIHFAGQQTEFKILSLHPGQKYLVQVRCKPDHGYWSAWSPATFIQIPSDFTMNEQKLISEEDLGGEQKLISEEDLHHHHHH

B1: H1H6958N2: anti-PRLR antibody, receptor blocking, human IgG1 Fc form of H2M6958N2 of Table 1; HCVR/LCVR SEQ ID NOs 290/298 (antibody, V domains shown)
VH: QVQLVESGGGVVQPGRSLRLSCGASGFTFRNYGMQWVRQGPGKGLEWVTLISFDGNDKYYADSVKGRFTISRDNSKNTLFLQMNSLRTEDTAVYYCARGGDFDYWGQGTLVTVSS
VL: DIQMTQSPSSLSASVGDRVTITCRASQDIRKDLGWYQQKPGKAPKRLIYAASSLHSGVPSRFSGSGSGTEFTLTISSLQPEDFATYYCLQHNSYPMYTFGQGTKLEIK
Δ (centroid m/z difference) (hPRLR peptide residues 168-180 of SEQ ID NO: 404, Experiment I 5 min on-/2.5 min off-exchange): −0.06 m/z
centroid m/z, on-beads/off-beads [1]: 1633.64 m/z
centroid m/z, on-solution/off beads [1]: 1633.71 m/z
Δ (centroid m/z difference) [1]: 0.08 m/z
centroid m/z, on-beads/off-beads [2]: 1469.86 m/z
centroid m/z, on-solution/off beads [2]: 1469.67 m/z
Δ (centroid m/z difference) [2]: −0.19 m/z
centroid m/z, on-beads/off-beads [3]: 1469.67 m/z
centroid m/z, on-solution/off beads [3]: 1469.71 m/z
Δ (centroid m/z difference) [3]: 0.04 m/z
centroid m/z, on-beads/off-beads [4]: 1155.35 m/z
centroid m/z, on-solution/off beads [4]: 1155.40 m/z
Δ (centroid m/z difference) [4]: 0.05 m/z
centroid m/z, on-beads/off-beads [5]: 1155.39 m/z
centroid m/z, on-solution/off beads [5]: 1155.40 m/z
Δ (centroid m/z difference) [5]: 0.01 m/z
centroid m/z, on-beads/off-beads [6]: 1341.66 m/z
centroid m/z, on-solution/off beads [6]: 1341.62 m/z
Δ (centroid m/z difference) [6]: −0.04 m/z
centroid m/z, on-beads/off-beads [7]: 1341.34 m/z
centroid m/z, on-solution/off beads [7]: 1341.49 m/z
Δ (centroid m/z difference) [7]: 0.15 m/z
centroid m/z, on-beads/off-beads [8]: 1772.03 m/z
centroid m/z, on-solution/off beads [8]: 1772.03 m/z
Δ (centroid m/z difference) [8]: −0.01 m/z
centroid m/z, on-beads/off-beads [9]: 1772.28 m/z
centroid m/z, on-solution/off beads [9]: 1772.15 m/z
Δ (centroid m/z difference) [9]: −0.13 m/z
centroid m/z, on-beads/off-beads [10]: 1284.39 m/z
centroid m/z, on-solution/off beads [10]: 1284.36 m/z
Δ (centroid m/z difference) [10]: −0.03 m/z
centroid m/z, on-beads/off-beads [11]: 1284.43 m/z
centroid m/z, on-solution/off beads [11]: 1284.32 m/z
Δ (centroid m/z difference) [11]: −0.11 m/z
centroid m/z, on-beads/off-beads [12]: 1624.98 m/z
centroid m/z, on-solution/off beads [12]: 1624.94 m/z
Δ (centroid m/z difference) [12]: −0.04 m/z
centroid m/z, on-beads/off-beads [13]: 1625.17 m/z
centroid m/z, on-solution/off beads [13]: 1625.08 m/z
Δ (centroid m/z difference) [13]: −0.10 m/z
centroid m/z, on-beads/off-beads [14]: 1261.33 m/z
centroid m/z, on-solution/off beads [14]: 1261.44 m/z
Δ (centroid m/z difference) [14]: 0.11 m/z
centroid m/z, on-beads/off-beads [15]: 1261.46 m/z
centroid m/z, on-solution/off beads [15]: 1261.24 m/z
Δ (centroid m/z difference) [15]: −0.22 m/z
centroid m/z, on-beads/off-beads [16]: 1419.65 m/z
centroid m/z, on-solution/off beads [16]: 1419.64 m/z
Δ (centroid m/z difference) [16]: −0.01 m/z
centroid m/z, on-beads/off-beads [17]: 1419.45 m/z
centroid m/z, on-solution/off beads [17]: 1419.48 m/z
Δ (centroid m/z difference) [17]: 0.02 m/z
centroid m/z, on-beads/off-beads [18]: 1962.39 m/z
centroid m/z, on-solution/off beads [18]: 1962.58 m/z
centroid m/z, on-beads/off-beads [19]: 1962.63 m/z
centroid m/z, on-solution/off beads [19]: 1962.52 m/z
Δ (centroid m/z difference) [19]: −0.10 m/z
centroid m/z, on-beads/off-beads [20]: 1560.76 m/z
centroid m/z, on-solution/off beads [20]: 1560.81 m/z
Δ (centroid m/z difference) [20]: 0.05 m/z
centroid m/z, on-beads/off-beads [21]: 1560.83 m/z
centroid m/z, on-solution/off beads [21]: 1560.81 m/z
Δ (centroid m/z difference) [21]: −0.01 m/z
centroid m/z, on-beads/off-beads [22]: 2827.99 m/z
centroid m/z, on-solution/off beads [22]: 2828.15 m/z
Δ (centroid m/z difference) [22]: 0.16 m/z
centroid m/z, on-beads/off-beads [23]: 2828.17 m/z
centroid m/z, on-solution/off beads [23]: 2827.99 m/z
Δ (centroid m/z difference) [23]: −0.18 m/z
centroid m/z, on-beads/off-beads [24]: 2498.74 m/z
centroid m/z, on-solution/off beads [24]: 2498.70 m/z
Δ (centroid m/z difference) [24]: −0.04 m/z
centroid m/z, on-beads/off-beads [25]: 2498.88 m/z
centroid m/z, on-solution/off beads [25]: 2498.68 m/z
Δ (centroid m/z difference) [25]: −0.20 m/z
centroid m/z, on-beads/off-beads [26]: 1528.75 m/z
centroid m/z, on-solution/off beads [26]: 1528.68 m/z
Δ (centroid m/z difference) [26]: −0.06 m/z
centroid m/z, on-beads/off-beads [27]: 1528.71 m/z
centroid m/z, on-solution/off beads [27]: 1528.64 m/z
Δ (centroid m/z difference) [27]: −0.07 m/z
